How the values were obtained:
[1] = target: human neonatal Fc receptor, His-tagged (hFcRn-His) (UniProt P55899); assay: SPR (Biacore T200); conditions: pH 6.0; 1× PBS (composition not stated); 1× PBST (pH 6.0)
[2] = target: human neonatal Fc receptor, His-tagged (hFcRn-His) (UniProt P55899); assay: BLI (Octet R8); conditions: PBS (composition not stated), PBS pH 6.0 for association, PBS pH 7.4 for dissociation; for Relative on-rate (initial association rate, normalised to trastuzumab) (fold relative to trastuzumab): pH 6.0; for Relative off-rate (initial dissociation rate, normalised to trastuzumab) (fold relative to trastuzumab): pH 7.4
[3] = target: FcRn immobilised on the FcRn affinity column Gen2 (Roche Diagnostics) (human) (UniProt P55899); assay: pH-gradient FcRn affinity column chromatography; FcRn affinity column Gen2 (Roche); pH gradient; retention time and pH of elution
[4] = target: human neonatal Fc receptor, His-tagged (hFcRn-His) (UniProt P55899); assay: BLI; Octet R8; hFcRn-His (40 µg/ml) held on NTA biosensors; trastuzumab-Fc variants in PBS pH 6.0 bound for 20 s, then dissociation in PBS pH 7.4 for 5 s; initial on-rate from the first 2 s, initial off-rate from the first 1 s; values relative to trastuzumab
[5] = target: human neonatal Fc receptor, His-tagged (hFcRn-His) (UniProt P55899)
[6] = target: trastuzumab-PFc29 (Q311R/M428L) (human); assay: SPR; Biacore T200; trastuzumab-Fc variants amine-coupled to a CM5 chip (about 1,000 RU); hFcRn-His 1,000 to 62.5 nM in 1x PBST pH 6.0, 30 µl/min; 1:1 binding model (trastuzumab: steady state); triplicate
[7] = target: trastuzumab-YML (L309Y/Q311M/M428L) (human); assay: as above
[8] = target: trastuzumab-EML (L309E/Q311M/M428L) (human); assay: as above
[9] = target: trastuzumab-DHS (L309D/Q311H/N434S) (human); assay: as above
[10] = target: trastuzumab (wild-type Fc) (human); assay: as above

Row | ka [1] | kd [1] | Relative on-rate (initial association rate, normalised to trastuzumab) (fold relative to trastuzumab) [2] | Relative off-rate (initial dissociation rate, normalised to trastuzumab) (fold relative to trastuzumab) [2] | pH at elution from the FcRn affinity column [3] | retention time on the pH-gradient FcRn affinity column [3] | average of relative on- and off-rate [4] | relative initial off-rate at pH 7.4 (against trastuzumab) [4] | relative initial on-rate at pH 6.0 (against trastuzumab) [4] | Substance | further results
1 | 39800 M⁻¹ s⁻¹ | 0.0721 s⁻¹ | 1.94 | 1.6 |  |  |  |  |  | trastuzumab-PFc29 Q311R;M428L | 
2 | 63200 M⁻¹ s⁻¹ | 0.0555 s⁻¹ | 2.1 | 1.74 |  |  |  |  |  | trastuzumab-YML L309Y;Q311M;M428L | 
3 |  |  | 1 | 1 |  |  |  |  |  | trastuzumab (wild-type human IgG1 Fc) | 
4 |  |  |  |  | 7.97 pH | 48 min | 1.48 fold | 1.5 fold | 1.47 fold | trastuzumab-EML (L309E/Q311M/M428L) (antibody) | 
5 |  |  |  |  | 8.05 pH | 50.2 min | 1.77 fold | 1.6 fold | 1.94 fold | trastuzumab-PFc29 (Q311R/M428L) (antibody) | 
6 |  |  |  |  |  |  | 1.82 fold | 1.83 fold | 1.81 fold | trastuzumab-DHS (L309D/Q311H/N434S) (antibody) | 
7 |  |  |  |  | 8.09 pH | 51.2 min | 1.92 fold | 1.74 fold | 2.1 fold | trastuzumab-YML (L309Y/Q311M/M428L) (antibody) | serum half-life t1/2 (terminal, beta-phase) in hFcRn transgenic mice (Tg276 hemizygous), single i.v. bolus 5 mg/kg, n = 3 [5]: 13.5 days
8 |  |  |  |  |  |  |  |  |  | human neonatal Fc receptor, His-tagged (hFcRn-His) (from UniProt P55899 24-297; P61769 21-119) | Kd [6]: 1810 nM; koff [6]: 0.0721 s⁻¹; kon [6]: 39800 M⁻¹ s⁻¹; Kd [7]: 878 nM; koff [7]: 0.0555 s⁻¹; kon [7]: 63200 M⁻¹ s⁻¹; Kd [8]: 1670 nM; koff [8]: 0.0475 s⁻¹; kon [8]: 28500 M⁻¹ s⁻¹; Kd [9]: 1800 nM; koff [9]: 0.0645 s⁻¹; kon [9]: 35700 M⁻¹ s⁻¹; Kd [10]: 4360 nM
9 | 35700 M⁻¹ s⁻¹ | 0.0645 s⁻¹ | 1.81 | 1.83 |  |  |  |  |  | trastuzumab-DHS L309D;Q311H;N434S | 
10 | 28500 M⁻¹ s⁻¹ | 0.0475 s⁻¹ | 1.47 | 1.5 |  |  |  |  |  | trastuzumab-EML L309E;Q311M;M428L | 
11 |  |  |  |  | 7.65 pH | 40.6 min | 1 fold | 1 fold | 1 fold | trastuzumab (wild-type Fc) (antibody) | 
